Data on five molecules can be found in article PMC12088426, “Activity and structure of human (d)CTP deaminase CDADC1” (Proceedings of the National Academy of Sciences of the …, 2025).

One data set addresses T1, CDADC1 (NYD-SP15) (Homo sapiens, UniProt Q9BWV3, E400A).
T1 construct: codon-optimized gene, E. coli BL21-CodonPlus(DE3)-RIL; homotrimer / hexamer (dimer of trimers), hexamer is the active form
T1 sequence (Q9BWV3 1-514 E400A): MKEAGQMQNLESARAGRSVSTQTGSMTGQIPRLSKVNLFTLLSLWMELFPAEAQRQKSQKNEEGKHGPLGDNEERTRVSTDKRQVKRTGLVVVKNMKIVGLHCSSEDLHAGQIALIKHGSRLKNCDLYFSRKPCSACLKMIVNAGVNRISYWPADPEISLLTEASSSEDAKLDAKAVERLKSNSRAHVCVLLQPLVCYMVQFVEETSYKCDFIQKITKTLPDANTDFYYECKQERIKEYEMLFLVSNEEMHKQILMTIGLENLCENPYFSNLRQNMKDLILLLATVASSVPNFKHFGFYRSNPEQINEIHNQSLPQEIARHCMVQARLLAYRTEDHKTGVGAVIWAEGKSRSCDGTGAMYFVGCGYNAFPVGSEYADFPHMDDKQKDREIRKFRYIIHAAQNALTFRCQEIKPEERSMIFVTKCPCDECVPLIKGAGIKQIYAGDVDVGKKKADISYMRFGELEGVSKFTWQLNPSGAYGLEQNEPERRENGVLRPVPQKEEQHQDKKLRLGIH
Description: cryo-EM structure of complex. The settings on record: hexamer, catalytically inactive variant. In kind it is binding.

Substrate in data set [1]: Nc1ccn([C@H]2C[C@H](O)[C@@H](COP(=O)(O)OP(=O)(O)OP(=O)(O)O)O2)c(=O)n1
Description: fluorescent ammonia detection, initial velocities, allosteric sigmoidal fit. In kind it is biochemical, Homo sapiens. The settings on record: Low Salt Reaction Buffer; 0.2 uM CDADC1 (monomer); Hill coefficient 1.22.

Substrate in data set [2]: Nc1ccn([C@H]2C[C@H](O)[C@@H](COP(=O)(O)O)O2)c(=O)n1
The description is as above. In kind it is biochemical, Homo sapiens. The note with it: Low Salt Reaction Buffer; 0.3 uM CDADC1 (monomer); Hill coefficient 1.8.

Substrate in data set [3]: Nc1ccn([C@@H]2O[C@H](COP(=O)(O)OP(=O)(O)OP(=O)(O)O)[C@@H](O)[C@H]2O)c(=O)n1
The description is as above. Type of data set: biochemical, Homo sapiens. The note with it: Low Salt Reaction Buffer; 0.3 uM CDADC1 (monomer); Hill coefficient 1.6.

Data set [4] concerns the molecule itself. Nature of the data set: mass photometry; Refeyn TwoMP; CDADC1 at ~0.06 uM (monomer), room temperature, 10 min, without a ligand or with 1 mM dCTP (dCTP stabilised against dissociation); hexamers dissociated to trimers and monomers over time; hexamer = dimer of trimers.
Data set [5] deals with the molecule itself. Description: cryo-EM structure; single-particle cryo-EM of CDADC1 E400A alone, with dCTP and with 5-methyl-dCTP; C3 (trimer) or D3 (dimer of trimers) symmetry imposed; maps 2.4 to 3.0 A.

Substitutions are numbered along the chain they refer to. Names may count otherwise. “And” between values parts separate entries of the source, which are not always exact repeats. Equal values may be shown once.

Regarding `Cc1cn([C@H]2C[C@H](O)[C@@H](COP(=O)(O)OP(=O)(O)OP(=O)(O)O)O2)c(=O)nc1N` [5mdCTP], the “cryo-EM structure of complex” value on CDADC1 (NYD-SP15) (CTD active site, less clear map than dCTP) is on record as “a hexamer with bound 5mdCTP (PDB: 9HFT)”.
Take `Nc1ccn([C@H]2C[C@H](O)[C@@H](COP(=O)(O)OP(=O)(O)OP(=O)(O)O)O2)c(=O)n1` [dCTP]: the “cryo-EM structure of complex” value at CDADC1 (NYD-SP15) (one dCTP per protomer in CTD active site, N4 coordinates Zn2+) is given as “a hexamer with bound dCTP (PDB: 9HFS)”.

B1: CDADC1 (NYD-SP15) (Homo sapiens) (protein)
chain: T1 sequence (Q9BWV3 1-514 E400A) with A400E
notes: codon-optimized gene, E. coli BL21-CodonPlus(DE3)-RIL; homotrimer / hexamer (dimer of trimers), hexamer is the active form
B1: the figures for the K0.5 in data set [1], in data set [2] and in data set [3] were 0.2 mM, 5 mM and 0.7 mM, respectively. Also, the values for the kcat in data set [1], in data set [2] and in data set [3] were 3.5 s⁻¹, 8.5 s⁻¹ and 5.0 s⁻¹, respectively.

B2: human CDADC1 (enzyme, UniProt Q9BWV3 1-514, looked up)
chain: T1 sequence (Q9BWV3 1-514 E400A) with A400E
notes: CDADC1 (NYD-SP15), human, 514 residues, expressed from a codon-optimized gene; Complete methods are in the SI Appendix; also called NYD-SP15; source: E. coli BL21-CodonPlus (DE3)-RIL, purified (His-trap, Heparin HP, Superdex 200 Increase)
For the molecule B2, the “stoichiometry N” value in data set [4] is 3 and 6.

B3: human CDADC1 E400A variant (enzyme, UniProt Q9BWV3 1-514, looked up)
chain: T1 sequence (Q9BWV3 1-514 E400A)
notes: CDADC1 (NYD-SP15), human, 514 residues, catalytic glutamate E400 changed to alanine; expressed from a codon-optimized gene; This variant was used for all cryo-EM datasets; source: E. coli BL21-CodonPlus (DE3)-RIL, purified (His-trap, Heparin HP, Superdex 200 Increase)
As for B3, the “stoichiometry N” value in data set [5] was 3 and 6.

One may read the kcat as the maximal rate divided by the concentration of active sites. The term stoichiometry N denotes a count of units in the complex or per binding partner.
